Target: Flag–UBR4 (UBR4 tagged at its endogenous locus) (human (endogenous in HEK293T)) (UniProt Q5T4S7)
Assay: cryo-EM structure; endogenous SIFI immunoprecipitated through tagged UBR4 from HEK293T and run on Superose 6 SEC; the complex formed in cells and was co-purified; single-particle cryo-EM, AF2 models fitted in low-resolution regions

Flag–UBR4 (UBR4 tagged at its endogenous locus), Q5T4S7-1 1-5183 (enzyme), sequence (Q5T4S7 whole entry): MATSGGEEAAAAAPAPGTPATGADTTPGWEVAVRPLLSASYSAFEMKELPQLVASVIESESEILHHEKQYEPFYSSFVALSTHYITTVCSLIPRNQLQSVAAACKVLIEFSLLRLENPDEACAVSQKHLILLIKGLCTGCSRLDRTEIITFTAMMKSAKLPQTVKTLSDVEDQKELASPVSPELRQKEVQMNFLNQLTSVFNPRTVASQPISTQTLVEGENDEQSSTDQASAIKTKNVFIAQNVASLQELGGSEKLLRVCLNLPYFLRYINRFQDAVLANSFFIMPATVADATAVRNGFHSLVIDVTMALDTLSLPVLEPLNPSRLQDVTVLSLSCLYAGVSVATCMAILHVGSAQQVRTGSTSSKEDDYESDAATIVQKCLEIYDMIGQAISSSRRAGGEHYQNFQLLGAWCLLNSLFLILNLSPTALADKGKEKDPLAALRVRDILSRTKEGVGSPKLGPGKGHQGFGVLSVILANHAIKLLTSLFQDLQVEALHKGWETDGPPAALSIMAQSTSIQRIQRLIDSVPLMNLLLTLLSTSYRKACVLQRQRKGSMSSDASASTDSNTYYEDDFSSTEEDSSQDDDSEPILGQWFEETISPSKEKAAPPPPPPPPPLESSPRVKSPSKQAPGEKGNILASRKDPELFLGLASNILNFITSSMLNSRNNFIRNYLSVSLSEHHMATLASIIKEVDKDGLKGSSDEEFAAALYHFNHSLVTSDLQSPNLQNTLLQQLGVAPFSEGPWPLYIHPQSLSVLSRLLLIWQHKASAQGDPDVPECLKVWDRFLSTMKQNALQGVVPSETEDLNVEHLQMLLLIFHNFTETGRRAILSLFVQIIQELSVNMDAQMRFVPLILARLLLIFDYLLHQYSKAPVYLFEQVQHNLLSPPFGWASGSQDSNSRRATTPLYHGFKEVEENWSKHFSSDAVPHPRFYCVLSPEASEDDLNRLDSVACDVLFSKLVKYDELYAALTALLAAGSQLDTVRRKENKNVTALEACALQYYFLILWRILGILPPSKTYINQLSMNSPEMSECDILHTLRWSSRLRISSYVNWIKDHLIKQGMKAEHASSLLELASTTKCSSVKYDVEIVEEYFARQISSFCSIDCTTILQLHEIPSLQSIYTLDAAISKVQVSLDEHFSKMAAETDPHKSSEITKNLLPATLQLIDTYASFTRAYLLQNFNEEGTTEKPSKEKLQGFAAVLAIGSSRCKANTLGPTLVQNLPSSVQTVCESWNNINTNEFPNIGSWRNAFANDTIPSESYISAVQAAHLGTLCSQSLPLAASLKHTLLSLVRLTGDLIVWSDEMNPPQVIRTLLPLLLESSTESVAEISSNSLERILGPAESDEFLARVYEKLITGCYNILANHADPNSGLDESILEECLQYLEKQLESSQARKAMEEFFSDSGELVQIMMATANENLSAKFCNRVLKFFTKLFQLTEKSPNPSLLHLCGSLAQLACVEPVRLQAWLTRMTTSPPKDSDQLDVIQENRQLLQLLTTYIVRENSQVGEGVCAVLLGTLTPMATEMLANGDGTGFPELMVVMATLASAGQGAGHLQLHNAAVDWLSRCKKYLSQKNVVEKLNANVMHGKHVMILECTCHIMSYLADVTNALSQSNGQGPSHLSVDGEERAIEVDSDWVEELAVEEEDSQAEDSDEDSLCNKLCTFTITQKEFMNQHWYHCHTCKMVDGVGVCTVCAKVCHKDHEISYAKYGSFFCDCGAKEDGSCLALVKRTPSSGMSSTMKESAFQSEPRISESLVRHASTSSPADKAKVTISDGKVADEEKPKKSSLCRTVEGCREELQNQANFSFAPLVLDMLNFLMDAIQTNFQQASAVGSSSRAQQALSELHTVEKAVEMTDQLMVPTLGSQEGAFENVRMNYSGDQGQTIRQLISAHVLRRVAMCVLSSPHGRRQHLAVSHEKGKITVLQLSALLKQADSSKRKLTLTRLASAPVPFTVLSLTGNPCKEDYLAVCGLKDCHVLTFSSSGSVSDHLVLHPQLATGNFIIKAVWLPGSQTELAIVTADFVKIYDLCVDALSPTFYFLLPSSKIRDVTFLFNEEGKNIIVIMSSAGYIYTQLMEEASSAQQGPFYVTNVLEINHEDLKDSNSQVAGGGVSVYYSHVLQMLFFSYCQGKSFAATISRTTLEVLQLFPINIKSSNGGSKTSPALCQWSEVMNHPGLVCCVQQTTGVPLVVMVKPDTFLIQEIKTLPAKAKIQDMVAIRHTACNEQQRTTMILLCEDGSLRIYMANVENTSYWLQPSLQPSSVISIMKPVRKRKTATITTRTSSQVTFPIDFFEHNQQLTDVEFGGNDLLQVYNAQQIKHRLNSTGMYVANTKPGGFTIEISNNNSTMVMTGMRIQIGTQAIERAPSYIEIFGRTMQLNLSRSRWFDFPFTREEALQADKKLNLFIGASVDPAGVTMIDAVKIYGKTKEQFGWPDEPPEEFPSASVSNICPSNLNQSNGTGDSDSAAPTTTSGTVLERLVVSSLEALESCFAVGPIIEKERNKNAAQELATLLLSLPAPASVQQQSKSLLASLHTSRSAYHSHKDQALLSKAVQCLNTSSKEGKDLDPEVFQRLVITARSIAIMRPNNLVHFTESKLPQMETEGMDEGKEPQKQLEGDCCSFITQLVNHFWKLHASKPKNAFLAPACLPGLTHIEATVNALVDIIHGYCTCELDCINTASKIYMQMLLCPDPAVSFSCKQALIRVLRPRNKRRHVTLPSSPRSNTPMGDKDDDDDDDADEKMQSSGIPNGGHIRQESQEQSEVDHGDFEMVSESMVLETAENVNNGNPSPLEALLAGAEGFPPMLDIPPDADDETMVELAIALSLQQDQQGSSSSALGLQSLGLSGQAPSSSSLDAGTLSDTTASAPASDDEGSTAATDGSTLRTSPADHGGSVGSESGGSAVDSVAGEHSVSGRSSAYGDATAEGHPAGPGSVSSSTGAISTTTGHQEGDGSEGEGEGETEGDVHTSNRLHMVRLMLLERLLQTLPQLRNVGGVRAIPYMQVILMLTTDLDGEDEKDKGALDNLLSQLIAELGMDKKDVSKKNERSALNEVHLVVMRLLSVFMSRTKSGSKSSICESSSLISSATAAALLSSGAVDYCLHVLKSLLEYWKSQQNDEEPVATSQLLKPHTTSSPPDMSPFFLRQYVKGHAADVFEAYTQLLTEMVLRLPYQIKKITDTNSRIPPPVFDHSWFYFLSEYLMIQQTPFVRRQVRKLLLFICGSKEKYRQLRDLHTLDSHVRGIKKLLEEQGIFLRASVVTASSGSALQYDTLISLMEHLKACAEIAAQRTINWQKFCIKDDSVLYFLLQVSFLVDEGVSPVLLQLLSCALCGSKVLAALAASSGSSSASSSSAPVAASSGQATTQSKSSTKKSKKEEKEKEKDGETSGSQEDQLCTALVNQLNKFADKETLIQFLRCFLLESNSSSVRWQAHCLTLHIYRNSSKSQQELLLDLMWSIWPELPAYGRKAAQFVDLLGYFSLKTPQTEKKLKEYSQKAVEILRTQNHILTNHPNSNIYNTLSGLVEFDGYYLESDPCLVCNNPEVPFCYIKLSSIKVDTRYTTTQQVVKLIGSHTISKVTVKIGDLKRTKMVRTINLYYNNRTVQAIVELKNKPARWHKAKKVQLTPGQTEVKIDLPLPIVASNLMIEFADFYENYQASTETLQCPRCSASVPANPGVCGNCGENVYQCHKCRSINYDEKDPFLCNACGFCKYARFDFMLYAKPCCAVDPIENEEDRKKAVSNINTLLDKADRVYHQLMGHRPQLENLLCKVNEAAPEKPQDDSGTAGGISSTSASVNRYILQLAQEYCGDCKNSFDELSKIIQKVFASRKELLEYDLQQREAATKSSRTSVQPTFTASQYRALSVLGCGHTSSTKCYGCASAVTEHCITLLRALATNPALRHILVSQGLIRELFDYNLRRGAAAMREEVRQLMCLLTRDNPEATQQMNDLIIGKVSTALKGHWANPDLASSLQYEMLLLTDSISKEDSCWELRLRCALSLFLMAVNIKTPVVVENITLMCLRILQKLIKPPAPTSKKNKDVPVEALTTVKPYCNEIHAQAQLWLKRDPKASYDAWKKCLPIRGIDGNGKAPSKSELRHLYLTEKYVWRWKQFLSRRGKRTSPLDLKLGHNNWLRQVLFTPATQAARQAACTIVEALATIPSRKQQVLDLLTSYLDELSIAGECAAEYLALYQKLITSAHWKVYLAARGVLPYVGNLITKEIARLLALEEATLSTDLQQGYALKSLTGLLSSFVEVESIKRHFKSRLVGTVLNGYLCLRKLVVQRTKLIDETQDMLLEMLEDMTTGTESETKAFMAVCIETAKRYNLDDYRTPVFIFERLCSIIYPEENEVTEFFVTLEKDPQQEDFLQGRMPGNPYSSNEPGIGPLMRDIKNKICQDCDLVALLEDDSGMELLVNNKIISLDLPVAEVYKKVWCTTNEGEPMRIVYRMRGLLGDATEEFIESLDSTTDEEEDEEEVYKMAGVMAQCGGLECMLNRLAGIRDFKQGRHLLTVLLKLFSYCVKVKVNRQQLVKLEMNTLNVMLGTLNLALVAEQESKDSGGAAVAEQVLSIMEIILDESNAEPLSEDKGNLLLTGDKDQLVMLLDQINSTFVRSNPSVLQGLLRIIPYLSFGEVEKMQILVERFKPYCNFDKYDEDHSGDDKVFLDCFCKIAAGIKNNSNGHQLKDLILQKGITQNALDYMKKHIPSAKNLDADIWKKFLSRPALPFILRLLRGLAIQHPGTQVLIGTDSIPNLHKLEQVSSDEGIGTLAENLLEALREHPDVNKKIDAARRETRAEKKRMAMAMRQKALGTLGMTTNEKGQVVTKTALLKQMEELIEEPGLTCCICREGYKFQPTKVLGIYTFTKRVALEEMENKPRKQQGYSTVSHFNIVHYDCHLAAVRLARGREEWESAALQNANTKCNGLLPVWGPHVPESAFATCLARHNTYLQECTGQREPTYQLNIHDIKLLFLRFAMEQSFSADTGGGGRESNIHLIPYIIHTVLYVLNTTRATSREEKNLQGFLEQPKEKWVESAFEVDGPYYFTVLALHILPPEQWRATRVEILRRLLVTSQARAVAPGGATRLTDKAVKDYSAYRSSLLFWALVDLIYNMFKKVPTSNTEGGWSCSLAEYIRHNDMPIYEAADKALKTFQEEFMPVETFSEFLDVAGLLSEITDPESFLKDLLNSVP

stoichiometry N: 2
Substance: Flag–UBR4 (UBR4 tagged at its endogenous locus), Q5T4S7-1 1-5183 (enzyme)

— paper PMC12286842
